Test results: patent US20040052799

Target: T1, N-succinyl-Ala-Ala-Pro-Phe-p-nitroanilide
T1 chain: AAPF

B1: Recombinant H. pylori peptidyl-prolyl cis-trans isomerase (ppiB), His-tagged (protein)
chain: FIAIIEHLNDKSLSQRFMMKPIKTYDIKEEELAKTAYATIKTNKGNITLELFYKDAPQAVSNFVTLAKEGFYNGLNFHRVIAGFVAQGGCPYGTGTGGPEHRIKCEVAHNPNKHQRGSISMAHAGRDTGGSQFFLCFVDLPHLDGEHTVFGKITSAESLSVLDKIKQGDIIESVVFSPSL
- kcat: This corresponds to a kcat of 1.6 sec^-1
